Experimental data from patent US20240190989A1 (BEIGENE SWITZERLAND, published 2024).
Where “and” joins values, the source holds several entries; their conditions need not be identical. Equal entries are not always repeated.

How the values were obtained:
[1] = target: T1, mouse CD137 (recombinant protein, SPR) (mouse, UniProt P20334 24-187, limits assumed); assay: SPR
T1 construct: also called murine CD137
T1 sequence (looked up): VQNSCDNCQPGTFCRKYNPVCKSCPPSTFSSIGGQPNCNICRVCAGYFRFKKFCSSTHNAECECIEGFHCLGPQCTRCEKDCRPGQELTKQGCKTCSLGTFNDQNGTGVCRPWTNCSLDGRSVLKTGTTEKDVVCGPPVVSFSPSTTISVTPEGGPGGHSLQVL

[2] = target: T2, human CD137 ECD-mIgG2a (human); assay: SPR, Human CD137
T2 construct: ECD 24-183 of huCD137 fused to mouse IgG2a Fc; also called huCD137-mIgG2a; huCD137

[3] = target: T3, cyno CD137 ECD-mIgG2a (monkey (Macaca mulatta gene; called …); assay: SPR, Monkey CD137
T3 chain: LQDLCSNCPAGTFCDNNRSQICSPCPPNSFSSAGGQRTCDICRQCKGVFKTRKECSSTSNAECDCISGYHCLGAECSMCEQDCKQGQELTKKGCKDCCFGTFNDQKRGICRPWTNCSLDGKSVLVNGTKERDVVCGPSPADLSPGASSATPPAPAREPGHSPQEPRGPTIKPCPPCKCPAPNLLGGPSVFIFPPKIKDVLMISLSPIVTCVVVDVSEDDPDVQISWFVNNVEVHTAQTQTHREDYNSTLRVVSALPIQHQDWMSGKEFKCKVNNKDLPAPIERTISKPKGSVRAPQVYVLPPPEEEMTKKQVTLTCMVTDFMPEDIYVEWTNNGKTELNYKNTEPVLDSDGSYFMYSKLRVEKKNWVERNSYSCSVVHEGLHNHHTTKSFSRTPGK

[4] = target: full-length human CD137 on cells (Hut78/huCD137, HEK293 transfectants, JK-NFKB-CD137) (human, UniProt Q07011 24-255); assay: cell-based or functional assay
Chain of full-length human CD137 on cells (Hut78/huCD137, HEK293 transfectants, JK-NFKB-CD137) (Q07011 24-255 limits assumed): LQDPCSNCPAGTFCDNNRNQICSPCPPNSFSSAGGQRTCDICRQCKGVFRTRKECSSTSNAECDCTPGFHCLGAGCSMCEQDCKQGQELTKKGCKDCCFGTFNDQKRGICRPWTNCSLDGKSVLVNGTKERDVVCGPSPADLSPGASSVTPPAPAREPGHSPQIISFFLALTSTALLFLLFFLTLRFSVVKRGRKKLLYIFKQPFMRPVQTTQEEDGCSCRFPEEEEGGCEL

[5] = target: T2, human CD137 ECD-mIgG2a; assay: antigen ELISA on huCD137-mIgG2a [panel B]

binding result [1]: no binding
Kd [2]: 36.2 nM
koff [2]: 0.00469 s⁻¹
kon [2]: 130000 M⁻¹ s⁻¹
Kd [3]: 15.9 nM
koff [3]: 0.00266 s⁻¹
kon [3]: 167000 M⁻¹ s⁻¹
EC50 (read off the curve) [5]: ~80 ng/mL
B1: BE-146 (CEAxCD137 multispecific antibody) (bispecific antibody, human IgG1, kappa)
heavy: QVQLVQSGAEVKKPGASVKVSCKASGYIFTSYYLHWVRQAPGQGLEWIGYINPQTGKTSYAQKFQGRVTMTRDTSTSTVYMELSSLRSEDTAVYYCAREYGNYNYPLDYWGQGTLVTVSSASTKGPSVFPLAPSSKSTSGGTAALGCLVKDYFPEPVTVSWNSGALTSGVHTFPAVLQSSGLYSLSSVVTVPSSSLGTQTYICNVNHKPSNTKVDKKVEPKSCDKTHTCPPCPAPPAAGPSVFLFPPKPKDTLMISRTPEVTCVVVDVSHEDPEVKFNWYVDGVEVHNAKTKPREEQYNSTYRVVSVLTVLHQDWLNGKEYKCKVSNKALAAPIEKTISKAKGQPREPQVYTLPPSREEMTKNQVSLTCLVKGFYPSDIAVEWESNGQPENNYKTTPPVLDSDGSFFLYSKLTVDKSRWQQGNVFSCSVMHEALHNHYTQKSLSLSPGKGGGGSEVQLLESGGGLVQPGGSLRLSCAASGFTVSAEDVGWVRQAPGKGLEWVSAILDKGGSTYYAESVKGRFTISRDNAKNTLYLQMSSLRAEDTAVYYCARIVYHAGGGVTFDTRGQGTQVTVSS
light: DIQMTQSPSSLSASVGDRVTITCRASENQYGYLAWYQQKPGKVPKLLIYNYKNLVEGVPSRFSGSGSGTDFTLTISSLQPEDVATYYCQHHLGTPYTFGQGTKVEIKRTVAAPSVFIFPPSDEQLKSGTASVVCLLNNFYPREAKVQWKVDNALQSGNSQESVTEQDSKDSTYSLSSTLTLSKADYEKHKVYACEVTHQGLSSPVTKSFNRGEC
notes: Module ratio 2:2, Fc null version of huIgG1; copies: 2 + 2
NF-kB luciferase reporter in JK-NFKB-CD137 cells co-cultured with CT26-OS8-CEA, EC50 [4]: 0.51 µg/mL and 2.91 nM and 0.56 µg/mL and 3.2 nM
